Source: the nanobody polyreactivity screen of Harvey et al. (2022)

Assay: yeast display, Sf9 membrane polyspecificity reagent, FACS + sequencing; frameworks hold sequencing errors
Outline: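 Nanobodies from a synthetic yeast display library (Saccharomyces cerevisiae BJ5465), induced 36–48 hours with galactose, were stained 1 hour at 4 °C with 10% biotinylated, detergent-solubilized Sf9 membrane reagent, enriched on streptavidin microbeads, then FACS-sorted. Anti-HA (expression) and streptavidin (reagent binding) fluorescence set low and high (top ~1%) gates. Polyreactivity labels come from the gate of origin. Genes were colony-PCR amplified, MiSeq 2 × 250 sequenced and filtered by CDR length.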

Sequence | polyreactivity (PSR sort gate)
QVQLVESGGGLVQAGGSLRLSCAASGSTFRCYAMGGYRQATGKERELVAAIRSAGSTDYADSVKGRFTISRDNAKITVYLQMNILKQEDTAVYYCAAYFRYRSSRYGYWGQGTQVTVSS | high polyreactivity
QLQHVESGGGLVQAGGSLRLSCAASGRIFGVNAQGWYRQAPGKERELVAAITSGGSTYYADSVKGRFTISRDNAKNTVYLQMKSLKPEDTAVYYGAARYYYLLWYTLPTKYDYWGQGTQVTVSS | high polyreactivity
QVQLVESGGGIVQAGGSHRVICAASGRIFRRYTMGWYRQATGKERDLVATITWDGVSTYYADSVKGRFTISRDNAKKTDYLQMNSLKPEDTAGYYCAARRVYLVGGRYDSWGQGTQVTVSS | high polyreactivity
QDQLVESGGGLFQAGGSLRLSCAASGFTFVDYTMGWYRQEPGKEREFVAAISSSGGSTYYADSVKGRITISRDYAKNTVYFQMNSLKPEDTAVYYCKADAINKRGGRDYWGQGTQVTVSS | high polyreactivity
QVQLVESGGGLVQAGGSLRLSCAASGSIFRGYAMGWYRQAPGKERELVAAINWSGSSTYYADSVKGRFTISRDNAKNTVYLQMYSMKPEDSAVYYCALVYYNRNLGGDYWGQGTQVTVSS | low polyreactivity
QVQLVESGGGLVQAGGSLRLSCAASGSIFGGYAMGWYRPAPGKERELVAAISKTGGTTYYADSVKGRFTISRDNAKNTVYLQMKSLKPEDTAVYYCNAPKRYSGSAYGYGYWGQGTQVTVSS | high polyreactivity
QVQLVESGGGLVQAGGSLRLSWAASGRTFQYYTMGWYRQAPGKERELVAAISTGGSTHYADSVKGRFTISRDNAKNTVYLQMNSLKPEDTAVYYCAALWSRRRSRPRFPGDYWGQGTQVTVSS | high polyreactivity
QVQLVESGGGLVQAGGSLRLSCAASGFIFPYYAMGWYRQAPGKERELVAAITSSGGSTYYADSVKGRFTISRDTAKNTVYLQMTSLKPEDNAVYYCNAYVRRTRDYDYWGQGTQVTVSS | high polyreactivity
QVQLVESGGGLVQAGGSLRLSCAASGSTFWVNARGWYRQAPGKERELVAAIRRGGSTKYADSVKGRFTISRDNAKTTVYLQMNSLKPEDTAVYYCAADSYRTPAIYDYWGQGTQVTVSS | high polyreactivity
LVQLVESGGGIVQAGGSLRLSCAASGLISQRNVMGWYRQAPGKERELVARISTSSSGTYYADSVKGRFTISRDNAKNTVYLQMNSLKPEDTAVYYCAKRWSPYYRLYSWGQGTQVTVSS | high polyreactivity
QVQLVESGGGLVQAGGSLRLSCAASGFILYFNAMGWYRQAPGKERELVAVISGTGVRTNYADSVKGRFTISRDNAKNTVYLQMYSLKPEDTAVYYCAAGYYSYRPRDYWGQGTQVTVSS | low polyreactivity
QVQLVESGGGLVQAGGSLRLSCAASGRTFVGNAMGWYRQAPGKERELVADITWSGDITYYADSVKGRFTISRDNAKNTVYLQMHSLKPEDTAVYYCAADYHRRRTDYDYWGQGTQVTVSS | low polyreactivity
QVQLVESGGGLVQAGGSIRLSCAASGFTFYYNTMGCYRQAPGKERELVAAISYSAGSTFYADSVKGRFTISRDNAKNTVYLQMNSLKTEDTAVYYCAAGRPRRHKGYHFGYWGQGTQVTVSS | low polyreactivity
QDQLVESGGGLVQAGGSLRLSCAASGSIFTDYAMGWYRQAPAKERELVAAITSSGGSTYYADSVKGRFTISRDYAKNTVYLQMKSLKTEDTAVYYCAADRITIYDYWGQGTQVTVSS | low polyreactivity
QVQLVESGGGLDQAGGSLRLSCAASGRIFTYNTMGWYRQAPGKEREFVASITYSGSSTYYADSVKGRFTISRDNAKNTVYLEMNSLKPEVTAVYYCAHRYGYSDGDYWGQGTQVTVSS | low polyreactivity
QVQLVESGGGLVQAGGSLRLSCAASGFTFGWYAMGWYRQAPGKERELVAAISRRGGTTYYADSVKGRFTISRDNAKNTVYLQMNSLKPEDTAVYYCAATSYTYVLSPYRGDYWGQGTQVTVSS | high polyreactivity
QVQLVESGGGLVQAGGSLRLSCAASGFTFGIYAMGWYRPATVKERELVAAISSSGGSTYYADSVKGRFTISRDNAKHTVYLQMNSLKPEDTAVYYCNAGALYRVYPYRGKLAYITYDSWGQGTQVTVSS | high polyreactivity
QVQLVESGGGLVQAGGSLRLSCAASGSIFLWNAMGWYRQAPGKEREFVASITSRGGSTYYADSVKGRFTISRDNAKNTVYLQMNSLKPEDTAVYYCAAVRSKYLYYQGGYSSYGYWGQGTQVTVSS | high polyreactivity
QVQLVESGGGLVQAGGSLRLSCAASGRIFWYYTMGWYRQAPGKERELVASINSDTGTYYADSVKGRFTISRDNAKNTVYLQMNSLKPEDTAVYYCNKDDYALSNTWRPEYDYWGQGTQVTVSS | low polyreactivity
QVQLEESGGGLVQAGGSLRLSCAPSGLTFGGNAMGWYRQAPGKERELVAAISSGGSTNYADSVKGRFTISRDNAKNTDFLNMNSLKPEDTAVYYCAARDRPGNYFTEYGYWGQGTQVTVSS | low polyreactivity
QVQLVESGGGLVQAGGSLRLSCAASGSTFRANAMGWYRQAPGKERELVAAISWSGGRTYYADSVKGRFTISRDNAKNTVYLQMNSLKPEDTAVYYCAAVTTQYIYSVPYYYWGQGTQVTVSS | high polyreactivity
QVQLVESGGGLVQAGGSLRLSCAASGRIFWYYAMGWYRQAPGKERELVATISYGGGNTYYADSVKGRFTISRDNAKNTVYLQMNSLKPEDTAVYYCARVPYAYLPYKPFQQYSYDYWGQGTQVTVSS | high polyreactivity

Sequence | polyreactivity (PSR sort gate)
QVQLVESGGGLVQAGGSLRLSCAASGSTFRYYAMGWYRQAPGKERELVAAINYSGGRTYYADSVKGRFTISRDNAKNTVYLQMNCVKPEDSAVYYCAADWSYLAVTDSTSDYDPNYGYWGQGTQVNVSS | high polyreactivity
QVQLVESGGGLVQAGGSLRLSCAASGSIFAYNAKGWYRPAPGKEREFVAVITRSDDSTYADSVKWRFTISRDNAKNTVYLQMNSLKPEDTSVYYCAAQPFVIDCGYRGDYWGQATQVTVSS | low polyreactivity
QVQLVESGGGLVQAGGSLRLSCAATGSIFAVYAMGWYRQAPGKERELVARITRGGGSTYYADSVKGRFTISRDNAKNTVYLQMNSLKPEDTAVYYCAAARWSQYRTWMNYWGQGTQVTVSS | high polyreactivity
QVQLVESGGGLVQAGGSLRLSCAASGSILFKNAMGWYRQAPGKERELVAAISTSGGRTYYADSVKGRFTISRDNAKNTVYLEMNSLKPEDTAVYYCAAVYPRQVSQVWRDDYWGQGTQVTVSS | high polyreactivity
QVHLVESGGGFFQAGGSLRLSCAASVITFPLYAMGWYRPAPGKERELVSAISRNGGRTYYADSVKGRFTISRDNAKNTVYLQMNSLKPEDTAVYYCAKVSRGSVSSPRDDYWGQGTQVNVSS | high polyreactivity
QVQLVESVGGLVKAGGRLRLSCAASGRIFPPNALACSRQAPGKERELVADNNFSGDSTYYADSVKGRFTISRDNAKNTVYLQMNSLKPEDTSVYYCAAVISLVSYYYWGQATQVTVSS | low polyreactivity
QVQLVESGGGLVQAGGSLRLSCAASGSIFLSYDMGWYRQAPGNESELVAAITQSGGSTYYADSVKGRFTISRDNAKNTVYLQMNSLKPEDTAVYYCAADYGYFPQETYPTYGYYYWGQGTQVTVSS | low polyreactivity
QVQLVESGGGLVQAGGSLRLSCAASGRIFGLYAMGWYRQAPGKERELVAAISRGGGSTYYADSVKGRFTISRDNAKNTVYLQMNSLKPEDTAVYYCATGLGYFSRLDYWGQGTQVTVSS | low polyreactivity
QVHLVESGGGLVQAGGSLRLSCAASGSIFEINAMGWYRQAPGKEWELVAAITGSGGSTHYADSVKGRFTISRDNAKNTVYLPMNSLNPEDTAVYYCAAVPRYQYGYWGQGTQVTVSS | low polyreactivity
QVQLVESGGGLVQAGGSLRLSCAASGRTFPLYAMGWYRQAPGKERELVASITTDSSTYYADSVKGLFTISRDNAKYTVYLQMNSLKPEDTAVYYCAATTIPYPYTEFDYWGQGTQVTVSS | low polyreactivity
HVQLVESGGGLVQAGGSLRLSCAASGNTFKYYAMGWYRQAPGKERELVAAISYSGGSTYYADSVKGRFTISRDNAKNTVYLQMNSLKPEDTAVYYCAADLDSERYYWGQGTQVTVSS | low polyreactivity
QVQLVESGGGIVQAGGSLRLSCAASGLTFYVYAMGWYREAPGKEREFVAAITWSGGSTYYADSVKGRFTISRDNAKNTVYLQMNSLKPEDTAVYYCAAETLWSELYYWGQGTQVTVSS | high polyreactivity
QVQLVESGGGLVQAGGSLRLSCAASGTIFSRNAMGWYRQAPGKERELVAAITGSGSSTYYADSVKGRFTISRDNAKNTVYLQMNSLKPEDTAVYYCNAARVYLSEWGQGTQVTVSS | high polyreactivity
QVQLVESGGGLVQAGGSLRLSCAASGFTFFYNAMGWYRPAPGKERELGAVITWNGGTTYYADSVKGRFTISRDNAKNTVYLQMNSLKTEDTAVYYCNADGLILYDYWGQGTQVTVSS | low polyreactivity
QVQLVESGGGLVQAGGSLRLSCAASGSTFQSKAMGWYRQAPGKERELVAAINSGTSTYYADSVKGRFTISRDNAKNTVYLQMNSLKPEDTAVYYCAADGIWGEYYYSELGDYDYWGQGTQVTVSS | low polyreactivity
QVQLVESVVGLVQAGCSLRLSCDASGFIFYYYTMGWYRQATGKERELVAAISRSGGRTYYADSVKGLFTISRDYAKNTVYLQMNSMKPDDTAVYYCAADTPYQTPPQQYVEYDYWGQCTQVTVSS | high polyreactivity
QVQLVESGGGLVQAGGSLRLSCAASGSIFQKYAMGWYRQAPGKDRELVAAISWDGGRTYYADSVKGRFTISRDNAKNTVYLQMNSLKPEDTAVYYCYWYDYWGHGTQVTVSS | high polyreactivity
QVQLEESGGGIVQAGGSLRLSCAASGRIFPYYAMGWYRQAPGKERALVAVISYSSGITYADSVKGRFTISRDNAKNTVYLQMNSLKPEDTAVYYCAADKWAFGATQYDYWGKGTQVTVSS | low polyreactivity
QVQLVESGGGLVQAGGSLRLSCAASGFIFDYNAMGWYRQAPGKERELVAAISWSGSRTYYAVSVKGRFTISRDNAKNTVYLQMNSLKPEDTAVYYCAAEWSGEAAWQVGAEDDYWGQGTQVTVSS | low polyreactivity
QVQLVESGGGLVQAGGSLRLRCAASGGTFSGYTMGWYRQAPGKERELVAAINWSGGRTYYADSVKGRFTISRDNAKNTVYLQMNSLKPEDTAVYYCNKYGLYYREYDYWGQGTQVTVSS | high polyreactivity
QVQRVESGGGLVQAGGSLRLSCAASGYTLGGYAMGWYRQAPGKERELVAAISSSGTSTYYADSVKGRFTISRDNAKNTVYLQMNSLKPEDTAVYYCNAYYLTYSAGDYWGQGTQVTVSS | low polyreactivity
